This assay concerns the target human LDL (low-density lipoprotein) (human). Kind of assay: SPR; LDL saturated with ALK1ecto. For orientation: In SPR one partner is held on a chip, and binding of the other changes the refractive index at the surface.

human LDL (low-density lipoprotein) (human), sequence (P04114 28-4563): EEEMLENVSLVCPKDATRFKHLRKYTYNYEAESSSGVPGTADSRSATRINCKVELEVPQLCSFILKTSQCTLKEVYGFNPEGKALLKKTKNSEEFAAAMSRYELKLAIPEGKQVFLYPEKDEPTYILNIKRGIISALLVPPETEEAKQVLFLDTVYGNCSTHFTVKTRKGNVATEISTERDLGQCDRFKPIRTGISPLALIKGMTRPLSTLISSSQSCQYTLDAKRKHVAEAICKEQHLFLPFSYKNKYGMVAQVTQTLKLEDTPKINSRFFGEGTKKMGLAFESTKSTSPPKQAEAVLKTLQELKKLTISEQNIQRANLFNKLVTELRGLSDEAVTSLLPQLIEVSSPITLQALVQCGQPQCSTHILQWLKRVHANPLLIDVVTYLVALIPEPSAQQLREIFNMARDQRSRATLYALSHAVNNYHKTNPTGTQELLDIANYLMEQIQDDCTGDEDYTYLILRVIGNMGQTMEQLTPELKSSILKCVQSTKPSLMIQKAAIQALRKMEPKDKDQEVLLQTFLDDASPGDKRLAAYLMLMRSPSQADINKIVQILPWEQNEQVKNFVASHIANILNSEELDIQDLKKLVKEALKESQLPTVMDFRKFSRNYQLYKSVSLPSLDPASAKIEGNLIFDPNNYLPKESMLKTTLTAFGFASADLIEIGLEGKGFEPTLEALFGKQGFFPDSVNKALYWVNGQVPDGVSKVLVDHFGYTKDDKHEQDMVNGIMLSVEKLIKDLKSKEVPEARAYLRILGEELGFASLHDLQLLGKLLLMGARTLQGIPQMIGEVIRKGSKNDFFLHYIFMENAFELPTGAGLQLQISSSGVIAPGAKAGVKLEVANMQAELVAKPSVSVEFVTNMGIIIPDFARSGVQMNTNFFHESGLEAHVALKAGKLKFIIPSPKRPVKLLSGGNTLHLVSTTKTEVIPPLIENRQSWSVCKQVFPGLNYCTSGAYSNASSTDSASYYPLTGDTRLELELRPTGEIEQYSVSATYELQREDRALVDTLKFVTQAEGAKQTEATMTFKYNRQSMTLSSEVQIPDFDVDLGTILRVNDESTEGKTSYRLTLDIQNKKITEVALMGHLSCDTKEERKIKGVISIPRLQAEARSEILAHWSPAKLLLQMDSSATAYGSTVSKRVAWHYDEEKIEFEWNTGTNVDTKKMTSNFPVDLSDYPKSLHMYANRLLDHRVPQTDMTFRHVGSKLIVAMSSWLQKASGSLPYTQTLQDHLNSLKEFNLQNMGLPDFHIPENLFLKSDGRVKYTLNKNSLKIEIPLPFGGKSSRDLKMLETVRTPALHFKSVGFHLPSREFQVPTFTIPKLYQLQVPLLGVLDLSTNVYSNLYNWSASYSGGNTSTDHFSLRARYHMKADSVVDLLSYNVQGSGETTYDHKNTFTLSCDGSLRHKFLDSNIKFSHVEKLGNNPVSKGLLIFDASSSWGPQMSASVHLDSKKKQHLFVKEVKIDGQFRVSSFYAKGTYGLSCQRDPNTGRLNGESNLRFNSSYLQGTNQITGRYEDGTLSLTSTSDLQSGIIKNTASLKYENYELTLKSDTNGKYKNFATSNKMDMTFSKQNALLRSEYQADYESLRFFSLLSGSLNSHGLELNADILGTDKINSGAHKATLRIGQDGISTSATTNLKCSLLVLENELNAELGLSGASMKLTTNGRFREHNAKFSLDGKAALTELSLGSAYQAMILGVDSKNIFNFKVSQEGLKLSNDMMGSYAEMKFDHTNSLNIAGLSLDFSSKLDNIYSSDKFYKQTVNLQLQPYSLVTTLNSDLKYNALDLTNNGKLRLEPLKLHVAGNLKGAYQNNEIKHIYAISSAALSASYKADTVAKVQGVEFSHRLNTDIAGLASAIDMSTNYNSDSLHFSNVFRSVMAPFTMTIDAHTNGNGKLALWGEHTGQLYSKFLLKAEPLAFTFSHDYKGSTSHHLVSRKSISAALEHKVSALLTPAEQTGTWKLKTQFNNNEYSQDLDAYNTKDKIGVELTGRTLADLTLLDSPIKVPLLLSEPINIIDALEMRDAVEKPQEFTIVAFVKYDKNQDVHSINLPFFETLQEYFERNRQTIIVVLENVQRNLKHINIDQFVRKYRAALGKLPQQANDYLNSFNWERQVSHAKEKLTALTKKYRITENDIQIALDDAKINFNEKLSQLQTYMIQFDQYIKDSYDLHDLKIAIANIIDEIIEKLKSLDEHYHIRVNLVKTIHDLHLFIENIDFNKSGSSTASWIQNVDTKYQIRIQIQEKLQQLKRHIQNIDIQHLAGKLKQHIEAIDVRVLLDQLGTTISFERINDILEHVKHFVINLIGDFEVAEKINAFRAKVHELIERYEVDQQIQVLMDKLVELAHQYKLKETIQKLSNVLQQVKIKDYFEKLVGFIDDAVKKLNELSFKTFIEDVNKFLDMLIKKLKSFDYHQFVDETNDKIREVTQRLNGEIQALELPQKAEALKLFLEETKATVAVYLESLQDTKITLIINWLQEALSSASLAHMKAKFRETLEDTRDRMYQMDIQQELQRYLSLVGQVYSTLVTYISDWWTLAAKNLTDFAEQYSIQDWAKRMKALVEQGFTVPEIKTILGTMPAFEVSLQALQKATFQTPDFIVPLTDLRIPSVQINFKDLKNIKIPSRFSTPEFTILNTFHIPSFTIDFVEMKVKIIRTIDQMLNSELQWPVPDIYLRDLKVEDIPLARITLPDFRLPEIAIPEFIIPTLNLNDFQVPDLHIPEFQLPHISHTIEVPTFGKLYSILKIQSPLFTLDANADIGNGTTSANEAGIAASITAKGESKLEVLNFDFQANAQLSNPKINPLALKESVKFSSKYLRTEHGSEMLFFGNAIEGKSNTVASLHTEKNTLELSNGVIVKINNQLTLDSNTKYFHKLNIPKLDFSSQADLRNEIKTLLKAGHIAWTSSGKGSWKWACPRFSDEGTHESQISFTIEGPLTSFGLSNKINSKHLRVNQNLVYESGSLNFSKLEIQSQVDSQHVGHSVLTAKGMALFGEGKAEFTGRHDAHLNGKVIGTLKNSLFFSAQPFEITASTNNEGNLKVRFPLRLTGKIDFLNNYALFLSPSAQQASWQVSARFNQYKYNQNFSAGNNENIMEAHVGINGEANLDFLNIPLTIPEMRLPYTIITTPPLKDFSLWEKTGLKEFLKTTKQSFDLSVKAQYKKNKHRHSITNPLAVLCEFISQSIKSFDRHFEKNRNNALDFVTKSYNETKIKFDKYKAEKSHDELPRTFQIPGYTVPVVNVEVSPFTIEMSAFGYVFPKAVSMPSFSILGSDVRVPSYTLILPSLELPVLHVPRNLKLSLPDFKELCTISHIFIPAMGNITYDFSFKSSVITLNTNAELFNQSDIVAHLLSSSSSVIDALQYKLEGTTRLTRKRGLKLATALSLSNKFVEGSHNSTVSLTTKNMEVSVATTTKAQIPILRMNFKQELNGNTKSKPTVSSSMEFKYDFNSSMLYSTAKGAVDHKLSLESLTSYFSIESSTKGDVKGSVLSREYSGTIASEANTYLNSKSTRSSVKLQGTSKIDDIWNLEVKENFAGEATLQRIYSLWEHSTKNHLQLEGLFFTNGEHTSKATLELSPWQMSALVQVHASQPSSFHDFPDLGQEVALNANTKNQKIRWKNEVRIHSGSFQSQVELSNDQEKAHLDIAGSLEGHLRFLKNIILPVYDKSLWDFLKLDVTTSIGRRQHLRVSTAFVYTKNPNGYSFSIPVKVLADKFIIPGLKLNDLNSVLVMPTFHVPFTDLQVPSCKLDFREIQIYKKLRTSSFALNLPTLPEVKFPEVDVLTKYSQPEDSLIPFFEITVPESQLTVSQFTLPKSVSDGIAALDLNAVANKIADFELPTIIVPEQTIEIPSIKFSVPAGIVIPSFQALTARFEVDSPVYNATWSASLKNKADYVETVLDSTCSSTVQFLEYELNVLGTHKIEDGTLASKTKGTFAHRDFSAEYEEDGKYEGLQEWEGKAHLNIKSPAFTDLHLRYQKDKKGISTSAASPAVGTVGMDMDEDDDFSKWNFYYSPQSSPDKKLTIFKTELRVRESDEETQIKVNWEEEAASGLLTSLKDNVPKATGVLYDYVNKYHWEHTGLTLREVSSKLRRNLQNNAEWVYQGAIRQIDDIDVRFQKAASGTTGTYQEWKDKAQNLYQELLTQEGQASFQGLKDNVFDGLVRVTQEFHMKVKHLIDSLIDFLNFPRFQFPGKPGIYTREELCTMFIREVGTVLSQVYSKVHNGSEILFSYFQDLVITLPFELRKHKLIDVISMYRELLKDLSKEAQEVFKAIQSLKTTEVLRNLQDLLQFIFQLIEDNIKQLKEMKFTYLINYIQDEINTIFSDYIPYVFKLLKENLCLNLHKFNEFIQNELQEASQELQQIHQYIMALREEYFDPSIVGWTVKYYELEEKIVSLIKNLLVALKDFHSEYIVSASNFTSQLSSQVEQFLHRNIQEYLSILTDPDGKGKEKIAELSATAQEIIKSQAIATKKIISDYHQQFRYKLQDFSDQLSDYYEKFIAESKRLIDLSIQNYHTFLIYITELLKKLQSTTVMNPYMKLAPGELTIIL

B1: LDLR^ecto-(His)6 (domain or fragment)
chain: not shown
The Kd is the free concentration of one partner at which half of the binding sites on the other are occupied at equilibrium, for simple one-to-one binding. Higher therefore signals lower affinity. In turn, B1 registered a Kd of 2 nM.

These data come from paper PMC5121336 (2016).
